Test results as given in US20020045215A1.

Target: Epidermal growth factor receptor of HCT-116 cells (human (HCT-116, a human colon cancer cell line)) (UniProt P00533)
Assay: cell-based or functional assay

ERRP fusion protein bound to MBP (from UniProt Q01279 25-448)
EGF-R Tyr-K activity in HCT-116 cells (reduction against cells exposed to MBP alone or control cells): 80 to 90%
